Publication PMC4283735

Assays:
[1] = target: recombinant 30Kc19 protein (Bombyx mori); experiment: native gel or EMSA
[2] = target: recombinant 30Kc19 protein (Bombyx mori); experiment: native gel or EMSA; remark: listed apart in the source
[3] = target: recombinant 30Kc19 protein (Bombyx mori); experiment: non-reducing SDS-PAGE
[4] = target: recombinant 30Kc19 protein (Bombyx mori); experiment: native gel or EMSA; remark: listed apart in the source
[5] = target: 30Kc19 C76A protein (Bombyx mori); experiment: native gel or EMSA

stoichiometry N [1]	stoichiometry N [2]	stoichiometry N [3]	stoichiometry N [4]	stoichiometry N [5]	Substance
2	2	2	2		recombinant 30Kc19 protein (natural protein)
				2	30Kc19 C76A protein (natural protein)
